# According to the supplement of paper PMC10065799, “High-throughput profiling of sequence recognition by tyrosine kinases and SH2 domains using bacterial peptide display” (eLife, 2023):
# What was measured:
# c-Src SH2 = assay: SH2 binding enrichment of the phosphorylated peptide, bacterial display (enrichment ratio); higher = better substrate or ligand; peptides without Tyr show the background
# Grb2 SH2 = Grb2 SH2 (UniProt P62993); assay: as above
# SHP2-C SH2 = assay: as above
# Fyn = Fyn (UniProt P06241); assay: phosphorylation enrichment, bacterial display (enrichment ratio); higher = better substrate or ligand; peptides without Tyr show the background
# Sequence of Fyn (P06241 whole entry, looked up): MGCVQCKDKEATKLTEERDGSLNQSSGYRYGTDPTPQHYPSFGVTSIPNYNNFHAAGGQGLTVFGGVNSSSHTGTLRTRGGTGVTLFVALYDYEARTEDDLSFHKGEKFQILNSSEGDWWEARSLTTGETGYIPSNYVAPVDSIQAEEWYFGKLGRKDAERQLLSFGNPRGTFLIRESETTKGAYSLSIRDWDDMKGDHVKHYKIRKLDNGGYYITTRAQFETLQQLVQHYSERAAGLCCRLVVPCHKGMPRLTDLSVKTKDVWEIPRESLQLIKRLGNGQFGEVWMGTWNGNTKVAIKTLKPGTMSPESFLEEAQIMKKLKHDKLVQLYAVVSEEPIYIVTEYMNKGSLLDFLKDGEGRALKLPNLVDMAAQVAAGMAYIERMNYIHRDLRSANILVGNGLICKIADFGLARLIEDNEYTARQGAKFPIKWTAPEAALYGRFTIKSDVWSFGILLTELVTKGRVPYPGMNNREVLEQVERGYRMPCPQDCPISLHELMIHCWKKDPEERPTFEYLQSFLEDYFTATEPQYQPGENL
# Hck = Hck (UniProt P08631); assay: as above
# Sequence of Hck (P08631 whole entry, looked up): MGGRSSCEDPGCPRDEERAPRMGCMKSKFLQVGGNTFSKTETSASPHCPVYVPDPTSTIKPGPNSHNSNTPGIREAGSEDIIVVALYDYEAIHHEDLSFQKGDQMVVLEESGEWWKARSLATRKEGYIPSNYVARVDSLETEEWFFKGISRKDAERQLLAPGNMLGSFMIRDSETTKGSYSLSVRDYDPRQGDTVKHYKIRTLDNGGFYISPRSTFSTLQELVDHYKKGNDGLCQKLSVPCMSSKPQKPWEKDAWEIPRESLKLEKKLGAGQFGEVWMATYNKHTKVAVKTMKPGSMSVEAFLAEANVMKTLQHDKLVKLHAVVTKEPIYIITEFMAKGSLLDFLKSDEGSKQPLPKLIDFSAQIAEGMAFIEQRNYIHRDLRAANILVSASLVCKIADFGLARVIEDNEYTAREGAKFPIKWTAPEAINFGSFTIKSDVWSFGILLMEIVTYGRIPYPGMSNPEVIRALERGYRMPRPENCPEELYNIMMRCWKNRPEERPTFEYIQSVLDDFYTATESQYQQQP
# Fer (mouse) = assay: as above
# c-Src = assay: as above
# MERTK = MERTK (UniProt Q12866); assay: as above
# Sequence of MERTK (Q12866 whole entry, looked up): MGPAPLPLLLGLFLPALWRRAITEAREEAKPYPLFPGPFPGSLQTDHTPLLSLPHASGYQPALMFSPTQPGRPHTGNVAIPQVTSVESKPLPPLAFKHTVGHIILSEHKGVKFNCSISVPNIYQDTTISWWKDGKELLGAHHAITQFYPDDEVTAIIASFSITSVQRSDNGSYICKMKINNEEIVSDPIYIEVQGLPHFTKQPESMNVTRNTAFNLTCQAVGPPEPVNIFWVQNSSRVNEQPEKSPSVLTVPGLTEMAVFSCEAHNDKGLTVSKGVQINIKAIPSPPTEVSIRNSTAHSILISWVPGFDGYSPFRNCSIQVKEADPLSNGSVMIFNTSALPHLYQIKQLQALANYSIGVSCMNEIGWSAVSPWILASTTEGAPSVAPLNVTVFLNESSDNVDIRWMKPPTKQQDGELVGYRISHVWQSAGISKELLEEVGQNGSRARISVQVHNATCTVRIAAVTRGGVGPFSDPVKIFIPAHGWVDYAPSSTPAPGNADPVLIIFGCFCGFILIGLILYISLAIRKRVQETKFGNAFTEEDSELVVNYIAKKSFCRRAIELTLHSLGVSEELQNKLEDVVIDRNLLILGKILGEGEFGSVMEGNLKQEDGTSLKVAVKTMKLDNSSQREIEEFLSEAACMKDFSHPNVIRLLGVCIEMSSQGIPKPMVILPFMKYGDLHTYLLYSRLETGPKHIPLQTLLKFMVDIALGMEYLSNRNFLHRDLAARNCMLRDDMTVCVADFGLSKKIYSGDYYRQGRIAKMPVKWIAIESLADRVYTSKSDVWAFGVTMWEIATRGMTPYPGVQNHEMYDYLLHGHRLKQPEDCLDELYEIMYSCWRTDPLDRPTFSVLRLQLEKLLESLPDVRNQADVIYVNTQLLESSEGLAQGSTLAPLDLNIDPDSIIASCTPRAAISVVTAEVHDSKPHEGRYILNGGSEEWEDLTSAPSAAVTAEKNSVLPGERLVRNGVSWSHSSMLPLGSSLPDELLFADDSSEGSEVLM
# FGFR3 = FGFR3 (UniProt P22607); assay: as above
# Sequence of FGFR3 (P22607 whole entry, looked up): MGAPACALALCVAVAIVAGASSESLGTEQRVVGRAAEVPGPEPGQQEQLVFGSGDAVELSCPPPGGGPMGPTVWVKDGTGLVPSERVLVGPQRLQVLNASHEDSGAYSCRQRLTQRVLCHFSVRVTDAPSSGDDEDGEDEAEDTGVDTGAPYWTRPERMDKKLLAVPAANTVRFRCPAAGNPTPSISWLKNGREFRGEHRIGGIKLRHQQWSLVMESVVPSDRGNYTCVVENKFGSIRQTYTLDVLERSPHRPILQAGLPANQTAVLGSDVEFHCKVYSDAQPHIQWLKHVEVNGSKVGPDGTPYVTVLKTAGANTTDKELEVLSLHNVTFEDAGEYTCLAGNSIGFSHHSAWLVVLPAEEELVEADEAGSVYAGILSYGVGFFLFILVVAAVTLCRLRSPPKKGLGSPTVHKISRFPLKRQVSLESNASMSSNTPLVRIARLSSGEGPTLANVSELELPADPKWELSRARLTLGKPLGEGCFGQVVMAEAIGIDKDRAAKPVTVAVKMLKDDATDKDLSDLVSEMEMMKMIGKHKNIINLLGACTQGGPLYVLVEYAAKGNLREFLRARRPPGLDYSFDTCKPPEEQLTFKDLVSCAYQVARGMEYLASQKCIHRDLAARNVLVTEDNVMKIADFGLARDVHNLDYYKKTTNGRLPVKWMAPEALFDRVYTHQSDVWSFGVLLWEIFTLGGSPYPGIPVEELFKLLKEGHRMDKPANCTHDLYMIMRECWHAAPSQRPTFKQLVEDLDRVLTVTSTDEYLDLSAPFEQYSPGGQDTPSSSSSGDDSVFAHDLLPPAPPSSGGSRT
# Jak2 = Jak2 (UniProt O60674); assay: as above
# EPHB2 = EPHB2 (UniProt P29323); assay: as above
# FGFR1 = FGFR1 (UniProt P11362); assay: as above
# Fes = Fes (UniProt P07332); assay: as above
# Sequence of Fes (P07332 whole entry, looked up): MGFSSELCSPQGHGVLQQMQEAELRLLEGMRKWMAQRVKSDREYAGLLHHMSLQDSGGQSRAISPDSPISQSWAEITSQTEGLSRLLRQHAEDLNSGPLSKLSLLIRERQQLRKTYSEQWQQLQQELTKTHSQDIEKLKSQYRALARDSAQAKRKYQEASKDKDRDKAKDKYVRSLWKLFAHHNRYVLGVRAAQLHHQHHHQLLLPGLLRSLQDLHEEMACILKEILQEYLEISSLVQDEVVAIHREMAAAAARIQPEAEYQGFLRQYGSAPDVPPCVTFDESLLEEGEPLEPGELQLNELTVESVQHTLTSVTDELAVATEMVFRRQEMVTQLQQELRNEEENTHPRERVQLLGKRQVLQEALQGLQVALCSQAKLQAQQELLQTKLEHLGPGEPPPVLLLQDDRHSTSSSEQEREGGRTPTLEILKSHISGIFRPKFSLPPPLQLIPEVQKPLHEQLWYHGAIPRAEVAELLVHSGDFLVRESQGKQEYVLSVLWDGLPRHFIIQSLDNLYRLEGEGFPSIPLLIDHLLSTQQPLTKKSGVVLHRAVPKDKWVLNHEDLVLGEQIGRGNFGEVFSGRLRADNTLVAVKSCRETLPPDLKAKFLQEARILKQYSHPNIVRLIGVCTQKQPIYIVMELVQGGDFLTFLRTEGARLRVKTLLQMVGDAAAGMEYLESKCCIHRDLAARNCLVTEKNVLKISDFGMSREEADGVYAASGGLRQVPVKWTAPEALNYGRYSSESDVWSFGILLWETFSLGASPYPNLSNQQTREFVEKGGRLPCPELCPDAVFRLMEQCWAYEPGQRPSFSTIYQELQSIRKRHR
# AncSZ = assay: as above
# EPHB1 = EPHB1 (UniProt P54762); assay: as above
# Sequence of EPHB1 (P54762 whole entry, looked up): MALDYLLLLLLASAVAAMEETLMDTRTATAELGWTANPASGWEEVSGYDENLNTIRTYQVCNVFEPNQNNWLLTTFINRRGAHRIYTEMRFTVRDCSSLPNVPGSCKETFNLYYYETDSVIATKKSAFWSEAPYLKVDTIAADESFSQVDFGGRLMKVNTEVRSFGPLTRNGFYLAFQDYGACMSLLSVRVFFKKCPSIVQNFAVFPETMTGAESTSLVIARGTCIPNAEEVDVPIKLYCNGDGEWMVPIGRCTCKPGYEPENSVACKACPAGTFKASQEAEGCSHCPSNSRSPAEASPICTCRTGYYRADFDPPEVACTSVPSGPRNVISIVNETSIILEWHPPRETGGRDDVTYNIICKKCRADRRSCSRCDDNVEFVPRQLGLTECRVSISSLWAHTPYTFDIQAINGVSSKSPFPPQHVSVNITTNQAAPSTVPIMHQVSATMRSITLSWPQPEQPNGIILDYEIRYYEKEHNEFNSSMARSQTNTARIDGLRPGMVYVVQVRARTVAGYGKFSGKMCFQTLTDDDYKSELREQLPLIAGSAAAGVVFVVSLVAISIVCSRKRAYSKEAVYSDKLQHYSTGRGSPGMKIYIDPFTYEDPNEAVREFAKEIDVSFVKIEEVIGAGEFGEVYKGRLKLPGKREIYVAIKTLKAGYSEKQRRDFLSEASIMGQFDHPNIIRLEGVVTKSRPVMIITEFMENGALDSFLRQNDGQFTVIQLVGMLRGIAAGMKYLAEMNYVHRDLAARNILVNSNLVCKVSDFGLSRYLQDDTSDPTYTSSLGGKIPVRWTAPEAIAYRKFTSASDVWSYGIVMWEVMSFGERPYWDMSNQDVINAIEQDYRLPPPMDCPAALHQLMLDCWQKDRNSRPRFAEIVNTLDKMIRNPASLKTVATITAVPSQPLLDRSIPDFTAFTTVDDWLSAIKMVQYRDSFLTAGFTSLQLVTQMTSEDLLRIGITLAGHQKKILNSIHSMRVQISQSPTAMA
# c-Abl (mouse) = assay: as above
# 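Throughout, for SH2 binding enrichment of the phosphorylated peptide, bacterial display: peptide library displayed on the E. coli surface as eCPX fusions, selected cells deep-sequenced, score is each peptide's frequency after selection divided by its frequency in the input.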
# 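Throughout, for phosphorylation enrichment, bacterial display: 11-residue human phosphosite peptides and single-mutation variants displayed on the E. coli surface, counted by deep sequencing, each peptide's frequency after selection divided by its frequency in the unselected input library; frequency after pTyr selection over input frequency; kinase dosed for 20-30% of maximal phosphorylation in three min.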
# Sequence of Grb2 SH2 (P62993 whole entry, looked up): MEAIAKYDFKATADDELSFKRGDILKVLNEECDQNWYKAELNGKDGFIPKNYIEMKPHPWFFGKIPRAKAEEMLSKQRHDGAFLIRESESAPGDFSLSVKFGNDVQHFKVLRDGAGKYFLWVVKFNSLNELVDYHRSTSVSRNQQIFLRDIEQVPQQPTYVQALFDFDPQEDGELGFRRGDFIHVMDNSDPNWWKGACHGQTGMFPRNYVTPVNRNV
Sequence,SH2 binding enrichment (c-Src SH2),SH2 binding enrichment (Grb2 SH2),SH2 binding enrichment (SHP2-C SH2),phosphorylation enrichment (Fyn),phosphorylation enrichment (Hck),phosphorylation enrichment (Fer (mouse)),phosphorylation enrichment (c-Src),phosphorylation enrichment (MERTK),phosphorylation enrichment (FGFR3),phosphorylation enrichment (Jak2),phosphorylation enrichment (EPHB2),phosphorylation enrichment (FGFR1),phosphorylation enrichment (Fes),phosphorylation enrichment (AncSZ),phosphorylation enrichment (EPHB1),phosphorylation enrichment (c-Abl (mouse))
ECKASYPGKIT [PRSS3_Y232],0.557,0.823,0.56,0.319,0.323,0.396,0.438,0.402,0.418,0.396,0.389,0.431,0.596,0.53,0.357,0.489
ECKETYHEGEC [PRKN_Y372_A371T],0.889,0.884,0.75,0.649,0.694,0.696,0.645,0.629,0.808,1.62,0.728,0.721,1.62,1.47,0.608,1.03
ECKFLYSRKEG [PTPN11_Y263_L261F],0.6,1.06,0.626,0.537,0.618,0.362,0.423,0.436,0.593,0.849,0.594,0.495,0.939,0.969,0.576,0.639
EDAHHYLCKEV [JAK2_Y382_A377E],0.603,1.08,0.781,0.542,0.439,0.441,0.366,0.411,0.778,0.632,0.493,0.588,0.857,0.799,0.656,0.657
EDASEYFENYI [PARP4_Y214],0.498,0.933,0.675,0.613,0.597,0.51,0.539,0.527,0.83,1.15,0.66,0.84,1.21,1.62,0.549,0.658
EDSEFYRAFEE [CASQ2_Y179_K180R_YF],0.751,0.963,0.682,0.538,0.513,0.489,0.494,0.449,0.848,1.02,0.525,0.473,1.07,1.15,0.582,0.771
EEAAGCAQESQ [CAMKV_Y491_Y491C],0.79,0.974,0.837,0.491,0.575,0.657,0.491,0.625,0.833,1.06,0.591,0.527,1.23,1.15,0.645,1.18
EEHIPYTHMNG [INSR_Y1361],0.722,0.754,0.807,0.451,0.51,0.452,0.371,0.403,0.598,0.668,0.517,0.497,0.85,0.797,0.54,0.555
EESREYDRLFE [PIK3R1_Y463_K459E_YF],6.69,0.829,0.473,0.493,0.657,0.599,0.654,0.546,0.762,1.48,0.681,0.609,1.49,1.46,0.489,1.07
EFITRYIASLK [PSMA7_Y110_YF],0.873,1.32,0.72,0.495,0.436,0.454,0.435,0.475,0.536,0.695,0.506,0.419,0.806,0.84,0.585,0.648
EFLKNYFTDKA [DSG2_Y775_R773K],0.365,0.764,0.882,0.581,0.556,0.361,0.632,0.531,0.493,0.808,0.63,0.555,0.827,0.847,0.527,0.573
EFQKKYSDADI [CKAP5_Y1860_K1857Q_YF],0.459,0.772,0.59,0.422,0.487,0.378,0.35,0.344,0.544,0.594,0.383,0.442,0.921,0.837,0.399,0.745
EGNEQYEGFCV [GRIA3_Y451_R450Q_YF],0.56,0.84,0.964,0.726,0.721,2.87,0.788,0.832,0.822,1.01,0.639,0.618,1.41,1.29,0.962,0.791
EGTATYAAAIL [JUP_Y644_V648I],0.412,0.82,0.429,1.25,1.21,1.57,1.25,0.534,0.586,0.795,1.76,0.476,0.872,0.857,0.884,0.976
EGWQVYRLGTR [MISP_Y95_A99T],0.546,1.03,0.871,1.78,1.03,0.45,3.69,0.325,0.645,0.733,0.457,0.44,0.75,0.846,0.416,0.525
EILDVYIFLGP [GAA_Y340_G335E],0.46,0.965,0.793,0.934,0.742,0.532,0.962,1.15,1.79,1.37,0.889,2,1.27,1.4,0.912,0.649
